Assay [1] addresses CA7-PabCA, carbonic anhydrase from Pyrococcus abyssi (Py. abyssi). The assay is described as follows: SDS-PAGE; SEC fractions of the purified CA (Cobalt His-Pur, Superdex 75), NuPAGE 4-12% Bis-Tris gel.
The target is the same in assay [2]. The assay can be described thus: SDS-PAGE; cell lysates of E. coli overexpressing the CA, NuPAGE 4-12% Bis-Tris gel in MES buffer; CA7 expressed without additional Zn, CA8 with 0.5 mM ZnSO4.
Assay [3] deals with CA8-PhoCA, carbonic anhydrase from Pyrococcus horikoshii (Py. horikoshii). The assay can be described thus: SDS-PAGE; SEC fractions of the purified CA (Cobalt His-Pur, Superdex 75), NuPAGE 4-12% Bis-Tris gel.
The target is the same in assay [4]. The assay can be described thus: SDS-PAGE; cell lysates of E. coli overexpressing the CA, NuPAGE 4-12% Bis-Tris gel in MES buffer; CA7 expressed without additional Zn, CA8 with 0.5 mM ZnSO4.

Take “CA7-PabCA, carbonic anhydrase from Pyrococcus abyssi (enzyme)”: the stoichiometry N in assay [1] and in assay [2] was 3 each time.

As to “CA8-PhoCA, carbonic anhydrase from Pyrococcus horikoshii (enzyme)”, the stoichiometry N in assay [3] and in assay [4] was 3 in each case.

Values taken from PMC11218372.
